Experimental data published in US20170044545, “APTAMER FOR BONDING TO AUTOTAXIN AND INHIBITING BIOLOGICAL ACTIVITY OF AUTOTAXIN, AND USE FOR SAME” (RIBOMIC INC., published 2017).

Tests used:
Autotaxin (ENPP2, NPP2) [1] = target: T1, Autotaxin (ENPP2, NPP2) (Homo sapiens, UniProt Q13822 Q13822:36-863); test: inhibition; pNP-TMP 1 mM, autotaxin 0.3 nM, 37 C 24 h, solution A
FGF2 = FGF2 (UniProt P09038 P09038:135-288); test: SPR; FGF2 immobilized about 1100 RU; specificity control; conditions: tags: PeproTech
Protocol: Whether the nucleic acids of SEQ ID NOs: 8 and 9 bind to autotaxin was evaluated by the surface plasmon resonance method. For the measurement, Biacore T100 manufactured by GE Healthcare was used, and the measurement was performed by the method shown below. About 2700 RU autotaxin was immobilized on a sensorchip surface of CM4 chip by using an amino coupling kit. The flow rate was 20 μL/min, and nucleic acids (20 μL) prepared to 0.3 μM were injected as an analyte. As a running buffer, solution A was used. In Table 1, nucleic acids showing a binding amount of not more than 10% of that of the aptamer of SEQ ID NO: 4 were considered not binding and marked with (−), and ones not less than that were considered binding and marked with (+).
Whether the aptamer shown in SEQ ID NO: 16(23) has a binding activity to FGF2 (PeproTech) was confirmed by the surface plasmon resonance method. Autotaxin was immobilized on a flow cell 2 and FGF2 was immobilized on a flow cell 3 (about 1100 RU), and the aptamer was injected. The rest was performed similarly to Example 2.

Autotaxin (ENPP2, NPP2) [2] = target: T1, Autotaxin (ENPP2, NPP2); test: inhibition
Autotaxin (ENPP2, NPP2) [3] = target: T1, Autotaxin (ENPP2, NPP2); test: inhibition; text prints 3' CCUGGA, listing ccucgga
Autotaxin (ENPP2, NPP2) [4] = target: T1, Autotaxin (ENPP2, NPP2); test: inhibition; listing sequence lacks U7 printed in text

FGF2, sequence (P09038 135-288, one chain of several): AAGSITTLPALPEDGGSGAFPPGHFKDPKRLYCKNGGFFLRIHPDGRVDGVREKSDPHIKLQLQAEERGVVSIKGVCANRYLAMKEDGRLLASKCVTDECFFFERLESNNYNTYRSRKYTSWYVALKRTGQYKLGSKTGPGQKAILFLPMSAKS

B1: SEQ 4 aptamer (ssRNA)
RNA: GGGACCGCACUCUAAACGCUCUGAGGGAAACAGGUUUUGCUCCUCGGAGCGUGGACGAAGUGAGACGUAUCCG
modifications: 2'-F pyrimidines, 2'-OH purines
**Q.** B1 was tested. Which IC50 (Autotaxin (ENPP2, NPP2) [1]) did it give?
**A.** 7 nM

**Q.** Does UCUGAGGGAAACAGGUUUUGCUCCUCGGA (mixed, as 16(22) with 5' 40 kDa PEG (GL2-400GS2)-ssH linker instead of 5' idT) [SEQ 16(23)] bind (FGF2)?
**A.** no binding

**Q.** And the IC50 (Autotaxin (ENPP2, NPP2) [2])?
**A.** 1.1 nM

**Q.** UCUGAGGGAAACAGGUUCUGCUCCUCGGA (ssRNA, 2'-F pyrimidines, 2'-OH purines) [SEQ 46] was tested. Which IC50 (Autotaxin (ENPP2, NPP2) [3]) did it give?
**A.** 50 nM

**Q.** For UCUGAGUGAAACAGGUUUUGCUGCUCGGA (ssRNA, 2'-F pyrimidines, 2'-OH purines [2'-F at all C and U; A and G 2'-OH]) [SEQ 48], which IC50 (Autotaxin (ENPP2, NPP2) [4]) is on record?
**A.** 44 nM
